Assay [1] addresses T1, truncated human P1R deleted for residues (24-181) (hP1R-delNt) (human, UniProt Q03431 182-593).
T1 construct: whole, on cells; also called delNT receptor
T1 sequence (looked up): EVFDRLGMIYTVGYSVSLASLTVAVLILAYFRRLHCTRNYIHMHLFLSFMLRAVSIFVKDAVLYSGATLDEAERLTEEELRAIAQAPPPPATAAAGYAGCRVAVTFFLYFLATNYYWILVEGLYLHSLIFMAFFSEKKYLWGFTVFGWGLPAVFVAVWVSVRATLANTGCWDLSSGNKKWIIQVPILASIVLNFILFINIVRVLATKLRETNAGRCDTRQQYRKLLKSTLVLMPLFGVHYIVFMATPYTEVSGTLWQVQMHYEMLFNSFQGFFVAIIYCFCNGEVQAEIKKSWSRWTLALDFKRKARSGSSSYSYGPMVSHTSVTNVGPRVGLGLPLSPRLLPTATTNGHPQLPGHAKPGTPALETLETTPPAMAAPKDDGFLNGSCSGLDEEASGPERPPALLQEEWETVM
The experiment in a line: Scatchard transformation of homologous competition binding, COS-7 cells. As for the experimental part: (§1) The cells were subsequently lysed with 0.5 mL […] NaOH and counted for radioactivity. For each tracer and in each experiment, the non-specific binding was determined as the radioactivity that bound in the presence of the same unlabeled peptide at a concentration of 1 μM, and was ˜1% of total radioactivity added for each tracer. The maximum specific binding (B₀) was the total radioactivity bound in the absence of competing ligand, corrected for nonspecific binding, and for each tracer, ranged from 8% to 20% of the total radioactivity added. Nonlinear regression was used to calculate binding IC₅₀ values (see below). Scatchard transformations of homologous competition binding data derived from studies with 26 fmol of ¹²⁵I-[Aib^{1,3},M]PTH(1-21) were employed for estimations of apparent equilibrium dissociation constant (kDapps) and total number of ligand binding sites (Bₘₐₓ), assuming a single class of binding sites and equal affinities of the iodinated and non iodinated ligand.
(§2) To potentially improve affinity of this peptide, the paired Aib-1,3 modifications were introduced to produce [Aib^{1,3},M]PTH(1-21). […] The total specific binding observed in COS-7 cells tranfected with vector DNA alone was<2% of total radioactivity added. This radioligand, therefore, enabled competition binding experiments to be performed with both the wild-type and truncated PTH-1 receptors.

Assay [2] concerns the target T1, truncated human P1R deleted for …. The experiment in a line: Scatchard transformation of homologous competition binding, 125I-[Aib1,3,M]PTH(1-21) tracer, COS-7 cells expressing P1R-delNt. The procedure: as §1, §2
Assay [3] has as its target T2, wild-type human PTH/PTHrP receptor (hP1R-WT) (human, UniProt Q03431 27-593).
T2 sequence (looked up): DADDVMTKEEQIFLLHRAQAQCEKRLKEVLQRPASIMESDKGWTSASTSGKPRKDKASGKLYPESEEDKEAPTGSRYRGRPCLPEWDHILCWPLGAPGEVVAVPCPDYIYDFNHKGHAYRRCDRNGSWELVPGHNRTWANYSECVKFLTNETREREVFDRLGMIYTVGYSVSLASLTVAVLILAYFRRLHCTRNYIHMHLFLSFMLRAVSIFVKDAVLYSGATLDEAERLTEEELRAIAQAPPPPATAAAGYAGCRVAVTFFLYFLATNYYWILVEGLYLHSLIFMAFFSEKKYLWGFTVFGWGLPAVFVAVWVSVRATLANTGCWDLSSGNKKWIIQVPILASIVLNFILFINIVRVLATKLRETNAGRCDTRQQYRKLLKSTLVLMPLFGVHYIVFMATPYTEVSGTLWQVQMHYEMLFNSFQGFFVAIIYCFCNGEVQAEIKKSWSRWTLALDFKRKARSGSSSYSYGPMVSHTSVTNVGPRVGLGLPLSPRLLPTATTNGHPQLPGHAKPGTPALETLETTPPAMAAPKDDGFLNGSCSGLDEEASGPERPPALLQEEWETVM
Description: cell-based or functional assay.

Assay [4] concerns the target T2, wild-type human PTH/PTHrP receptor …. The experiment in a line: competition binding on HKRK-B28 cells. The procedure:
Competition Binding. Binding reactions were performed with HKRK-B28 cells or in COS-7 cells in 24-well plates. The cells were rinsed with 0.5 mL of binding buffer, and then treated successively with 100 μL binding buffer, 100 μL of binding buffer containing various amounts of unlabeled competitor ligand, and 100 μL of binding buffer containing ca. 100,000 cpm of ¹²⁵I-[M]PTH(1-21) or ¹²⁵I-[Aib^{1,3},M]PTH(1-21)} (ca. 26 fmol; final volume=300 μL). Incubations were 4 to 6 h at 4° C., at which time near equilibrium conditions were attained. Cells were then placed on ice, the binding medium was removed, and the monolayer was rinsed three times with 0.5 mL of cold binding buffer. The cells were subsequently lysed with 0.5 mL […] and counted for radioactivity. For each tracer and in each experiment, the non-specific binding was determined as the radioactivity that bound in the presence of the same unlabeled peptide at a concentration of 1 μM, and was ˜1% of total radioactivity added for each tracer. The maximum specific binding (B₀) was the total radioactivity bound in the absence of competing ligand, corrected for nonspecific binding, and for each tracer, ranged from 8% to 20% of the total radioactivity added. Nonlinear regression was used to calculate binding IC₅₀ values (see below). […]

Square brackets hold non-standard residues; d marks the D form. Ends that are not written are not given here. hArg = N=C(N)NCCCC[C@H](N)C(=O)O; Nle = CCCC[C@H](N)C(=O)O; Aib = CC(C)(N)C(=O)O Some results are limits rather than exact numbers.

B1: [Aib^1,3,M]PTH(1-21) (peptide)
peptide: [Aib]V[Aib]EIQL[Nle]HQ[hArg]AKWLASVRRY-NH2
modifications: N-terminus assumed
SMILES: CCCC[C@H](NC(=O)[C@H](CC(C)C)NC(=O)[C@H](CCC(N)=O)NC(=O)[C@@H](NC(=O)[C@H](CCC(=O)O)NC(=O)C(C)(C)NC(=O)[C@@H](NC(=O)C(C)(C)N)C(C)C)[C@@H](C)CC)C(=O)N[C@@H](Cc1c[nH]cn1)C(=O)N[C@@H](CCC(N)=O)C(=O)N[C@@H](CCCCNC(=N)N)C(=O)N[C@@H](C)C(=O)N[C@@H](CCCCN)C(=O)N[C@@H](Cc1c[nH]c2ccccc12)C(=O)N[C@@H](CC(C)C)C(=O)N[C@@H](C)C(=O)N[C@@H](CO)C(=O)N[C@H](C(=O)N[C@@H](CCCNC(=N)N)C(=O)N[C@@H](CCCNC(=N)N)C(=O)N[C@@H](Cc1ccc(O)cc1)C(N)=O)C(C)C
notes: unlabeled peptide; also called 674 [Aib^1,3, M]PTH (1-21); 674 [Aib^1,3M]PTH(1-21)
Regarding B1, the “fold weaker affinity at P1R-delNt than at P1R-WT” value in assay [1] is < 2 fold. Moreover, binding in assay [2] was put at a Kd of 29 nM.

B2: [Aib^1,3,M]PTH(1-14) (peptide)
peptide: [Aib]V[Aib]EIQLMHQ[hArg]AKW-NH2
modifications: N-terminus assumed
SMILES: CC[C@H](C)[C@H](NC(=O)[C@H](CCC(=O)O)NC(=O)C(C)(C)NC(=O)[C@@H](NC(=O)C(C)(C)N)C(C)C)C(=O)N[C@@H](CCC(N)=O)C(=O)N[C@@H](CC(C)C)C(=O)N[C@@H](CCSC)C(=O)N[C@@H](Cc1c[nH]cn1)C(=O)N[C@@H](CCC(N)=O)C(=O)N[C@@H](CCCCNC(=N)N)C(=O)N[C@@H](C)C(=O)N[C@@H](CCCCN)C(=O)N[C@@H](Cc1c[nH]c2ccccc12)C(N)=O
notes: also called 671 [Aib^1,3, M]PTH (1-14); 671 [Aib^1,3M]PTH(1-14)
Take B2: in assay [3], the “cAMP EMAX(obs.) in SaOS-2 cells” value worked out at 320 pmole/well. In addition, the “fold higher apparent affinity than [M]PTH(1-14)” value in assay [4] turned out to be 100 fold.

The values above are taken from patent publication US20050026839A1 (GENERAL HOSPITAL, published 2005).
